Test results from doi:10.1101/2022.08.11.503658.

What was measured:
Test in all cases: SDS-PAGE of lysate kept at 25°C versus heated to 95°C, with immunoblot
[1] = biological target: C-terminally 1xFLAG-tagged NoV GII.4 VP1 capsid protein expressed by rSA11/NSP3-2A-VP1f (human norovirus GII.4 MD145-12)
[2] = biological target: C-terminally 6xHis-tagged NoV GII.4 VP1 capsid protein expressed by rSA11/NSP3-2A-VP1His (human norovirus GII.4 MD145-12)
[3] = biological target: Rotavirus SA11 NSP3 (wild type, from rSA11/wt) (rotavirus SA11)
[4] = biological target: N-terminally 3xFLAG-tagged NoV GII.4 VP1 capsid protein expressed by rSA11/NSP3-2A-fVP1 (human norovirus GII.4 MD145-12)
[5] = biological target: Rotavirus SA11 VP6 (rotavirus SA11)
[6] = biological target: Rotavirus SA11 NSP3 linked to remnant residues of the 2A peptide (rotavirus SA11 | porcine teschovirus)

C-terminally 1xFLAG-tagged NoV GII.4 VP1 capsid protein expressed by rSA11/NSP3-2A-VP1f (natural protein)
stoichiometry N [1]: 2

C-terminally 6xHis-tagged NoV GII.4 VP1 capsid protein expressed by rSA11/NSP3-2A-VP1His (natural protein)
stoichiometry N [2]: 2

Rotavirus SA11 NSP3 (wild type, from rSA11/wt) (natural protein)
stoichiometry N [3]: 2

N-terminally 3xFLAG-tagged NoV GII.4 VP1 capsid protein expressed by rSA11/NSP3-2A-fVP1 (natural protein)
stoichiometry N [4]: 2

Rotavirus SA11 VP6 (natural protein)
stoichiometry N [5]: 3

Rotavirus SA11 NSP3 linked to remnant residues of the 2A peptide
stoichiometry N [6]: 2
